Patent US20240285784A1, “PEPTIDIC CONJUGATES OF SN38 USEFUL IN THE TREATMENT OF CANCER” (FUNDACIÓ INSTITUT DE RECERCA BIOMÈDICA (IRB BARCELONA), priority 2020, published 2024)
In brackets after ≈: the same amount, converted by molar mass. Where two headings read alike, the source gives them in different places. *1 amine or outer side, *2 acyl side, *3 side chain or, on linkers, in order; H or OH if unused. Where a SMILES comes first, the peptide text is derived from it. Bridges are numbered along the chain shown (N, C = ends). [ ]: non-standard residue; d: D form. The star is where a group is joined. X1 = CCc1c2c(nc3ccc(O)cc13)-c1cc3c(c(=O)n1C2)COC(=O)[C@@]3(CC)OC(=O)CCCCn1cc(CCCC(=O)NCCCOCCOCCOCCCN*)nn1; Suc = O=C(CCC(=O)[*:2])[*:1]; Dap = NC[C@H](N)C(=O)O

What was measured:
athymic nude mice [1] = experiment: Maximum tolerated dose, single intravenous injection; format: in vivo; conditions: 200 mg/kg single i.v., following 14 days, compared to untreated control animals
Description: (§1) To evaluate the toxicity of irinotecan and SN38-linker A-MiniAp4 (Ia) (also named G2B-001) in athymic nude mice (10 week old; 8 mice per group) first the maximum tolerated dose (MTD) of SN38-linker A-MiniAp4 (Ia) was studied, by intravenous injection. Three mice were injected at dose levels 200, 500 and 1000 mg/kg, and observed for symptoms including death or weight lost during the following 14 days. The MTD was established at 200 mg/kg.

[2] = as above; format: in vivo, mice; conditions: mouse, in vivo; single intravenous injection, athymic nude mice, observed 14 days
Description: as §1

[3] = Turbidimetric aqueous solubility; format: physicochemical; conditions: for solubility at 2 hr: kinetic from dmso stock, 0.01 M phosphate buffered saline pH 7.4, 1% DMSO, 2 hr at 37° C., absorbance 620 nm
Description: Each test compound concentration was then further diluted 1 in 100 in buffer (0.01 M phosphate buffered saline pH 7.4) so that the final DMSO concentration was 1% and the final test compound concentrations were 1, 3, 10, 30 and 100 μM. The experiment was performed at 37° C. and each concentration was incubated in 7 replicate wells. The plates were incubated for 2 hr at 37° C. before the absorbance was measured at 620 nm.

[4] = Stability in rat plasma at 37° C. in vitro; format: in vitro ADME
Description: (§2) To assess the stability of the SN38-linker A-MiniAp4 (Ia) (example 7) in human, mouse, dog and rat plasma at 37° C., the compound was prepared at 200 μM in plasma samples in triplicates at each timepoint (0 h, 1 h, 4 h, 8 h and 24 h) for each species. Once the incubation was finalised, plasma proteins were immediately precipitated by adding chilly methanol (ratio 4:1, methanol:plasma) and tubes were shacked for few seconds (vortex). Samples were centrifuged at 3,000 rpm for 30 minutes at 4° C., supernatants were collected, transferred to the injection plate and injected to LC-MS system.
(§3) Compound recovery was determined by comparing the analyte response in a biological sample that is spiked with the analyte and processed, with the response in a methanol sample that is spiked with the analyte and processed.
(§4) Plasma stability assay was performed using blank plasma from untreated volunteers/animals. K2-EDTA was used as anticoagulant. Human blank plasma used was obtained from Hospital Sant Pau, mouse blank plasma used was obtained from Janvier, dog blank plasma used was obtained from Isoquimen and rat blank plasma used were obtained from Draconis Pharma.

athymic nude mice [5] = experiment: In vivo tolerability, repeated intravenous injections (mouse weight); conditions: 30 mg/kg i.v., 9 doses (days 1, 3, 5, 8, 10, 12, 29, 31, 33), weight until day 40
Description: Upon the establishment of the MTD of SN38-linker A-MiniAp4 (Ia) at single i.v, we compared mean weight of mice treated with irinotecan at a clinically relevant multi-dose regimen, and SN38-linker A-MiniAp4 (Ia)at an equimolar dose. Briefly, mice were treated with either irinotecan 10 mg/kg (15 doses, on days 1-5, 8-12 and 29-33), by the intraperitoneal (i.p.) route, or with a SN38-linker A-MiniAp4 (Ia) 30 mg/kg (9 doses, on days 1, 3, 5, 8, 10, 12, 29, 31, 33), intravenously (i.v.). This regimen was considered the maximum feasible number of i.v. injections in mice. Control mice were treated with saline i.p. on days 1-5, 8-12 and 29-33.
Mouse weight was measured until day 40 and mean and SD values are represented for each group in FIG. 19. […] Weight of SN38-linker A-MiniAp4 (Ia) (Ia) treated mice was similar to that of mice treated with clinically relevant dosages of irinotecan.

[6] = Evaluation of solubility in water; format: physicochemical
Description: 25 mg of SN38-linker A-MiniAp4 were dissolved in H2O, showing a completely transparent solution. This means that SN38-linker A-MiniAp4 has a solubility in water higher than 5 mg/mL, more than 400-fold the solubility in water described for SN38 (Mol. Pharmaceutics, 2016, 13, 379-390).

[7] = Stability in human plasma at 37° C. in vitro; format: in vitro ADME
Description: as §2, §3, §4
To assess the stability of the G2B-001 lineal (Ib) (example 16) in human plasma at 37° C., the compound was prepared at 200 µM in plasma samples in triplicates at each timepoint (0 h, 0.5 h, 1 h, 2 h, 4 h, 8 h and 24 h). Once the incubation was finalised, plasma proteins were immediately precipitated by adding chilly methanol (ratio 4:1, methanol:plasma) and tubes were shacked for few seconds (vortex). Samples were centrifuged at 3,000 rpm for 30 minutes at 4° C., supernatants were collected, transferred to the injection plate and injected to LC-MS system. Compound recovery was determined by comparing the analyte response in a biological sample that is spiked with the analyte and processed, with the response in a methanol sample that is spiked with the analyte and processed.
Plasma stability assay was performed using blank plasma from untreated volunteers. K2-EDTA was used as anticoagulant. Human blank plasma used was obtained from Hospital Sant Pau.

[8] = Stability in human serum at 37° C. in vitro; format: in vitro ADME; conditions: 200 μM in HBSS, 90% human serum
Description: Regarding to the stability in human serum of the SN38-linker A-MiniAp4 (Ia) (example 7), it was incubated at a concentration of 200 μM in buffer HBSS at 37° C. in the presence of 90% human serum. At a range of times, 100 μL aliquots were collected to which 400 μL cold methanol was added in order to precipitate the serum proteins. The samples were centrifuged at 3000 rpm at 4° C. during 30 min, filtered and analyzed by UPLC-PDA and UPLC-MS to determine the degree of degradation of SN38-Linker A-MiniAp4 (Ia).

[9] = Stability in mouse plasma at 37° C. in vitro; format: in vitro ADME
Description: as §2, §3, §4

[10] = Stability in dog plasma at 37° C. in vitro; format: in vitro ADME
Description: as §2, §3, §4

In the case of `CCc1c2c(nc3ccc(O)cc13)-c1cc3c(c(=O)n1C2)COC(=O)[C@@]3(CC)OC(=O)CCCCn1cc(CCCC(=O)NCCCOCCOCCOCCCNC(=O)CCC(=O)N[C@H]2CNC(=O)C[C@@H](C(N)=O)NC(=O)[C@H](CC(C)C)NC(=O)[C@H](C)NC(=O)[C@H]([C@@H](C)O)NC(=O)[C@H](CCC(=O)O)NC(=O)[C@@H]3CCCN3C(=O)[C@H](C)NC(=O)[C@H](CCCCN)NC2=O)nn1` [SN38-linker A-MiniAp4 (Ia)] ({X1-Suc}-[Dap]KAPETALD-NH2; lactam 1-9), the “symptoms including death or weight lost at the MTD” value (athymic nude mice [1]) is reported as “survived and did not show immediate symptoms of distress or significant weight lost”, the MTD at 14 days [2] is reported as 200 mg/kg and the solubility at 2 hr ([3]; 37 °C, pH 7.4, aqueous buffer, read-out: Turbidity aqueous solubility, Estimated precipitation range, Lower bond) is reported as 30 µM (≈ 54.8 µg/mL). For the same molecule, the solubility at 2 hr ([3]; 37 °C, pH 7.4, aqueous buffer, read-out: Turbidity aqueous solubility, Estimated precipitation range, Upper bond) was 100 µM (≈ 183 µg/mL), the solubility at 2 hr ([3]; aqueous buffer, read-out: Turbidity aqueous solubility, Estimated precipitation range, Calculated mid-range) was 65 µM (≈ 119 µg/mL) and the “solubility problems in turbidimetric solubility test” value ([3]; up to 100 micromolar) was “No solubility problems”. For the same molecule, the half-life at 200 μM [4] was over 24 h, the recovery at 24 h, 200 μM ([4]; 24 h, read-out: % Recovery after 24 h in rat plasma) was 61.2% and the “mouse weight versus controls” value (athymic nude mice [5]) was “did not lose significant weight”. For the same molecule, the “solubility in water relative to the solubility in water described for SN38” value ([6]; versus literature solubility of SN38 (Mol. Pharmaceutics, 2016, 13, 379-390)) was “more than 400 fold”, the solubility ([6]; water, 25 mg dissolved in H2O, completely transparent solution) was over 5000 µg/mL and the half-life at 200 μM [7] was over 24 h. For the same molecule, the recovery at 24 h, 200 μM ([7]; 24 h, read-out: % Recovery after 24 h in human plasma) was 65.1%, the half-life at 200 μM [8] was over 24 h and the “degree of degradation in human serum” value ([8]; 24 h) was “No significant degradation”. The half-life at 200 μM [9] was 8 to 24 h, the recovery at 24 h, 200 μM ([9]; 24 h, read-out: % Recovery after 24 h in mouse plasma) was 57.1% and the half-life at 200 μM [10] was 8 to 24 h. For the same molecule, the recovery at 24 h, 200 μM ([10]; 24 h, read-out: % Recovery after 24 h in dog plasma) was 68.3%.
